According to the Human Domainome abundance scans (Beltran et al. 2025):
± gives the uncertainty stated by the source.

B1: Cytoplasmic polyadenylation element-binding protein 2, residues 513 to 575; numbered along this chain, Q7Z5Q1 (parent)
chain: KRVEVKPYVLDDQMCDECQGARCGGKFAPFFCANVTCLQYYCEFCWANIHSRAGREFHKPLVK

Variants of: B1
Test: abundance fitness (aPCA) (normalised: wild type 0, dead -1); higher = more abundant; growth selection in yeast, the domain comes from the species named
Conditions: Homo sapiens

Variant	abundance fitness
KRVEVKPYVLDDQMCDECQGARCGGKFAPFFCANVTCLQYICEFCWANIHSRAGREFHKPLVK	-0.694 ± 0.14
KRVEVKPYVLDDQMCDECQGARCGGKFAPFFCANVTCLQYSCEFCWANIHSRAGREFHKPLVK	-0.532 ± 0.064
KRVEVKPYVLDDQMCDECQGARCGGKFAPFFCANVTCLQYQCEFCWANIHSRAGREFHKPLVK	-0.433 ± 0.073
KRVEVKPYVLDDQMCDECQGAICGGKFAPFFCANVTCLQYYCEFCWANIHSRAGREFHKPLVK	-0.284 ± 0.07
KRVEVKPYVLDDQMCDECQGALCGGKFAPFFCANVTCLQYYCEFCWANIHSRAGREFHKPLVK	-0.128 ± 0.044
KRVEVKPYVLDDQMCDECQGARCGGKFAPFFCANVTCLQYYCEFCWANIHSRATREFHKPLVK	-0.112 ± 0.068
KRVEVKPYVLDDQMCDECQGARCGGKPAPFFCANVTCLQYYCEFCWANIHSRAGREFHKPLVK	-0.01 ± 0.055
KRVEVKPYVLDDQMCDECQGARCGGKFAPFFCANVTCLQYYCEFCWANIHSRAGRFFHKPLVK	-0.235 ± 0.057
KRVEVKPYVLDDQMCDECQGARCGGKFAPFFCANVTCLQYYCEFCWANIHSRAGRLFHKPLVK	-0.253 ± 0.043
KRVEVKPYVLDDQMCDECQGARCGGKFAPFNCANVTCLQYYCEFCWANIHSRAGREFHKPLVK	-0.608 ± 0.098
KRVEVKPYVLDDQMCDECQGARCGGLFAPFFCANVTCLQYYCEFCWANIHSRAGREFHKPLVK	-0.138 ± 0.036
KRVEVKPYVLDDQMCDECQGARCGGKFAPFFCANVTCLQYYCEFCWANIHSVAGREFHKPLVK	0.102 ± 0.031
KRVEVKPYVLDDQVCDECQGARCGGKFAPFFCANVTCLQYYCEFCWANIHSRAGREFHKPLVK	-0.085 ± 0.051
KRVEVKPYVLDDQDCDECQGARCGGKFAPFFCANVTCLQYYCEFCWANIHSRAGREFHKPLVK	0.039 ± 0.086
KRVEVKPYVLDDQQCDECQGARCGGKFAPFFCANVTCLQYYCEFCWANIHSRAGREFHKPLVK	-0.036 ± 0.053
KRVEVKPYVLDDQKCDECQGARCGGKFAPFFCANVTCLQYYCEFCWANIHSRAGREFHKPLVK	0.064 ± 0.057
KRVEVKPSVLDDQMCDECQGARCGGKFAPFFCANVTCLQYYCEFCWANIHSRAGREFHKPLVK	0.121 ± 0.044
KRVEVKPRVLDDQMCDECQGARCGGKFAPFFCANVTCLQYYCEFCWANIHSRAGREFHKPLVK	0.064 ± 0.039
KRVEVKPKVLDDQMCDECQGARCGGKFAPFFCANVTCLQYYCEFCWANIHSRAGREFHKPLVK	0.121 ± 0.058
KRVEVKPYVLDDQMCDECQEARCGGKFAPFFCANVTCLQYYCEFCWANIHSRAGREFHKPLVK	-0.462 ± 0.074
KRVEVKPYVLDDQMCDECQWARCGGKFAPFFCANVTCLQYYCEFCWANIHSRAGREFHKPLVK	-0.686 ± 0.078

Variant	abundance fitness
KRVEAKPYVLDDQMCDECQGARCGGKFAPFFCANVTCLQYYCEFCWANIHSRAGREFHKPLVK	-0.088 ± 0.052
KRVELKPYVLDDQMCDECQGARCGGKFAPFFCANVTCLQYYCEFCWANIHSRAGREFHKPLVK	-0.136 ± 0.039
KRVEVKPYVLDDQMSDECQGARCGGKFAPFFCANVTCLQYYCEFCWANIHSRAGREFHKPLVK	-0.377 ± 0.054
KRVEVKPYVLDDQMCDECQGARCGGKFAPFFCANVTCLQYYCEFCWARIHSRAGREFHKPLVK	0.029 ± 0.045
KRVEVKPYVLDDQMCDECQGARCGGKFAPFFCANVTCLQYYCEFCWAGIHSRAGREFHKPLVK	0.074 ± 0.059
KRVEVKPYVLDDQMCDECQGARCGGKFAPFFCANVTCLQYYCEFCWADIHSRAGREFHKPLVK	0.007 ± 0.07
KRVEVKPYVLDDQMCDECQGARCGGKFAKFFCANVTCLQYYCEFCWANIHSRAGREFHKPLVK	-0.065 ± 0.047
KRVEVKPYVLDDQMCDECQGARCGGKFARFFCANVTCLQYYCEFCWANIHSRAGREFHKPLVK	-0.052 ± 0.038
KRVEVKPYVLDDQMCDECQGARCGGKFAPFFCANVTCLQYYCEFCWANIHSRTGREFHKPLVK	0.082 ± 0.046
KRVEVKPYVLDDQMCDECQGARCGGKFAPFFCANHTCLQYYCEFCWANIHSRAGREFHKPLVK	-0.037 ± 0.082
KRVEVKPYVLDDQMCDECQGARCGGKFAPFFCANTTCLQYYCEFCWANIHSRAGREFHKPLVK	0.033 ± 0.053
KRVEVKLYVLDDQMCDECQGARCGGKFAPFFCANVTCLQYYCEFCWANIHSRAGREFHKPLVK	-0.579 ± 0.058
KRVEVKEYVLDDQMCDECQGARCGGKFAPFFCANVTCLQYYCEFCWANIHSRAGREFHKPLVK	0.051 ± 0.059
KRVEVKPYVLDDQMCIECQGARCGGKFAPFFCANVTCLQYYCEFCWANIHSRAGREFHKPLVK	0.042 ± 0.073
KRVEVKPYVLDDQMCDECQGARCGGKFAPFFCANVTCLYYYCEFCWANIHSRAGREFHKPLVK	-0.369 ± 0.1
KRVEVKPYVLDDQMCDECQGARCGGKFAPFFCANVTCLFYYCEFCWANIHSRAGREFHKPLVK	-0.472 ± 0.089
KRVEVKPYVLDDQMCDECQGARCLGKFAPFFCANVTCLQYYCEFCWANIHSRAGREFHKPLVK	-0.089 ± 0.035
KAVEVKPYVLDDQMCDECQGARCGGKFAPFFCANVTCLQYYCEFCWANIHSRAGREFHKPLVK	-0.096 ± 0.06
KRVEVKPYVLDDQMCDECQGARCGGKFAPFFCANVTCLQYYCEFCWANIHSRAGREFHKPLVS	-0.034 ± 0.13
KRVEVKPYVLDDQMCDECQGARCGGKFAPFFCANVTCLQYYCEFCWANIHSRAGREFHKPLVN	-0.091 ± 0.11
KRVEVKPYVLDDQMCDECQGARCGGKFAPFFCANVTCLQYYCEFCWANIHSRAGREFHKWLVK	-0.817 ± 0.069
